Experimental data from paper doi:10.1101/2023.12.20.572533, “MUT-7 exoribonuclease activity and localisation are mediated by an ancient domain” (bioRxiv, 2023).

Assays:
[1] = target: T1, MUT-8^NTD (1-235), purified (C. elegans, UniProt Q19672 1-235); assay: ITC; cell 46 µM MUT-8^NTD, syringe 600 µM MUT-16^584-724; 20 °C; 25 mM Tris/HCl pH 7.5, 150 mM NaCl, 0.25 mM TCEP; 19 injections of 2 µL; mean of three experiments; conditions: both partners purified
T1 construct: C. elegans MUT-8 N-terminal domain construct, residues 1-235
T1 sequence (looked up): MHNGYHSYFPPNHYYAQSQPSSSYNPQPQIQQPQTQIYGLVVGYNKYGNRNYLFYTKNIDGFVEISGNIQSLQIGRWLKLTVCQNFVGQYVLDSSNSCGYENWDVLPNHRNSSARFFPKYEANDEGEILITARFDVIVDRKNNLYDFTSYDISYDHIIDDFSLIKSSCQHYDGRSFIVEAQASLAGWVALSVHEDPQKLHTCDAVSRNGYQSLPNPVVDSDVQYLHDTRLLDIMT

[2] = target: T2, MUT-7FL/MUT-8CTD chain MUT-7FL;MUT-8CTD (Caenorhabditis elegans;Caenorhabditis …, UniProt P34607;Q19672 1-910;322-578, |); assay: fluorescence polarisation; 50 mM KCl, 5 mM EDTA; FP: 50 nM RNA, 20 mM HEPES/NaOH pH 7.5, 50 mM KCl, 5 mM EDTA (C. elegans) or 250 mM NaCl (human EXD3 and MUT-7 D435A), room temperature, 30 min; conditions: protein: recombinant;recombinant; copies: 1;1; label: 5'-FAM; single strand
T2 sequence 1: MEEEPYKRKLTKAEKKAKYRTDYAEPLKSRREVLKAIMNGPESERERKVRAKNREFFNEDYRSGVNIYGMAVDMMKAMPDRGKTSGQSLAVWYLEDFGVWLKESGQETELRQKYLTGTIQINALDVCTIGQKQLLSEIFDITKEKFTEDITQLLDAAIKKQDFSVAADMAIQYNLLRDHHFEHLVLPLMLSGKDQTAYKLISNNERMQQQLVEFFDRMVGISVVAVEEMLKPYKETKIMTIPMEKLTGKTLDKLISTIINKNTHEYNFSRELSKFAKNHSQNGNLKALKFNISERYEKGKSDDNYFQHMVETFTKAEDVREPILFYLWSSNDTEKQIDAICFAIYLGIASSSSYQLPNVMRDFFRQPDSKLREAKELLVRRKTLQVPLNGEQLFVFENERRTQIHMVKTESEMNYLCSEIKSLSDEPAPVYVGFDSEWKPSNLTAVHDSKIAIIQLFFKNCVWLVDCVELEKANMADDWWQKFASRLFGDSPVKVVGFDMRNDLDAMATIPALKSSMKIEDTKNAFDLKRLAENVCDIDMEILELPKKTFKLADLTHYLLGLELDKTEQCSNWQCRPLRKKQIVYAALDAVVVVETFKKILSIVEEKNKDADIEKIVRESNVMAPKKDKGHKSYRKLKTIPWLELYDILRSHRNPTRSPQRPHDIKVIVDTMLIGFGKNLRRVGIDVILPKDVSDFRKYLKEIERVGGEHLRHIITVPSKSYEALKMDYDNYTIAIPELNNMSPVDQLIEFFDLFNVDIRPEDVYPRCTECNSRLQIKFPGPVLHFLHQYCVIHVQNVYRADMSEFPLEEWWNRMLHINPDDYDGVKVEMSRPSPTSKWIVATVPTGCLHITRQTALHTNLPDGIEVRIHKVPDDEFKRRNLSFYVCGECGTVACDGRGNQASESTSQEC
T2 sequence 2: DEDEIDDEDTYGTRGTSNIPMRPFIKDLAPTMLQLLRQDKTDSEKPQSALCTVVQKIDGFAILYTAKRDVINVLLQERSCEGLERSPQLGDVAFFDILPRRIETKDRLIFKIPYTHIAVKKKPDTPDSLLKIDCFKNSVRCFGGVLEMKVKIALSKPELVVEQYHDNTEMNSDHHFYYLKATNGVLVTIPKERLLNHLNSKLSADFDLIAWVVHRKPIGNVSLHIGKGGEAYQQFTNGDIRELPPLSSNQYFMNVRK

[3] = target: T3, MUT-7^FL/MUT-8^FL complex (C. elegans, UniProt P34607 1-910; Q19672 1-578); assay: pull-down; purified proteins (5 µM), GST-tagged MUT-16 constructs as bait on glutathione resin; 20 mM HEPES/NaOH pH 7.5, 150 mM NaCl, 10% glycerol, 0.05% IGEPAL, 2 mM DTT; 4 °C; SDS-PAGE, Coomassie; conditions: both partners purified
T3 construct: C. elegans MUT-7, residues 1-910; C. elegans MUT-8 (RDE-2), residues 1-578; also called MUT-7/MUT-8; full-length MUT-7/MUT-8; source: E. coli BL21(DE3) derivative, co-expressed and purified as a complex through several chromatographic steps
T3 sequence (looked up) 1: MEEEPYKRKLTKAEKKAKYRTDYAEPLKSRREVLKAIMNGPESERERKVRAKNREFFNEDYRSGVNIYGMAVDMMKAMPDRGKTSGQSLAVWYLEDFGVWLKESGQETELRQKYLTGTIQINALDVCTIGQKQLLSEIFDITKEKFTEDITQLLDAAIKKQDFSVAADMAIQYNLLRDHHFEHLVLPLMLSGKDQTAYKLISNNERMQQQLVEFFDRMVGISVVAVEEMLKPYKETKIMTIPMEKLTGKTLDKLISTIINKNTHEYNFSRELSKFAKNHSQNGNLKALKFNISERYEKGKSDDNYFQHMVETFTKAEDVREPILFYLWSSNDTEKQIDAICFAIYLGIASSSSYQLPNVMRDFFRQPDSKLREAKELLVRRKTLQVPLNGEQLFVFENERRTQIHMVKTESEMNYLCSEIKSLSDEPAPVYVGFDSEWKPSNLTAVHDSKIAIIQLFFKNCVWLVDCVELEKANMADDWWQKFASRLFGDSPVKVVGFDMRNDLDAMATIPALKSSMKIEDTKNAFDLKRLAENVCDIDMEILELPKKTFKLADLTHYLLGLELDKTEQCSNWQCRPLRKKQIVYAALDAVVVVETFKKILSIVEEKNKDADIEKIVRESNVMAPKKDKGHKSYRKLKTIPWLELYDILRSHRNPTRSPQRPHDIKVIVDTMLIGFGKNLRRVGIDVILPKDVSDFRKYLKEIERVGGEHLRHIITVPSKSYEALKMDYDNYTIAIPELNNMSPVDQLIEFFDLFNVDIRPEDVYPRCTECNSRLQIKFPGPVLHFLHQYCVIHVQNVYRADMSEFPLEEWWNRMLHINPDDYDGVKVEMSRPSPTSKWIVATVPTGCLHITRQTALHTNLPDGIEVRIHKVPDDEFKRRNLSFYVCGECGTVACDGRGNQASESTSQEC
T3 sequence (looked up) 2: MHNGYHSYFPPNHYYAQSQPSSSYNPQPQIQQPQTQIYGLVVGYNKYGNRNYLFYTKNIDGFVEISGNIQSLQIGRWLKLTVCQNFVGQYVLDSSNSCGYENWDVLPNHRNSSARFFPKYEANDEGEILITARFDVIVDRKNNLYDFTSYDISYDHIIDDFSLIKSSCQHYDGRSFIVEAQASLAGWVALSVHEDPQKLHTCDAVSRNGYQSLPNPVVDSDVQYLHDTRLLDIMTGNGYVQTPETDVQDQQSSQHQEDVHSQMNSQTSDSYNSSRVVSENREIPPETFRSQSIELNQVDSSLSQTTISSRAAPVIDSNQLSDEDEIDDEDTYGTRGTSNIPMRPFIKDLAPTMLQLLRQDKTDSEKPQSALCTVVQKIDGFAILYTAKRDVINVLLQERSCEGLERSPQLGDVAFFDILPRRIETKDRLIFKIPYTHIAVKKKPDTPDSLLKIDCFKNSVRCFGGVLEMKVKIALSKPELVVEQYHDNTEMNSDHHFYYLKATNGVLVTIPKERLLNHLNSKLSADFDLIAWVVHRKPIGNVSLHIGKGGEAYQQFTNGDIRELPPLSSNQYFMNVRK

B1: MUT-16^584-724, purified (SEC, ITC) (domain or fragment, C. elegans, UniProt O62011 584-724, looked up)
chain: KKKSESSATDTSNTPPVDTVNVALPTPVVESSSTTAAPSIPVSTRPEVVVPPENPAPLREVGNFYSKSNHDEDRRNVQLPFTPADTHKPIKVAPKEPVRNPLLKERPSANGFINRRLPSHPAPPPVNQSQPANQPMQTAVY
notes: source: E. coli BL21(DE3) derivative, purified (alone, or co-expressed with MUT-8^NTD and purified as a complex)
Kd [1]: ~13 µM

GUUGAUUGAAGAGUUC (ssRNA) [16-mer ssRNA]
Kd [2]: 0.17 µM

B2: GST-tagged MUT-16^1-724 (domain or fragment, C. elegans, UniProt O62011 1-724, looked up)
chain: MSESDDDYPELDISDQYIDPLGIVVGPPPASYTETDREETPMQNRTEDDTNSYGNSSGEHDYDSYLDSGDDDFDVDAYYANDNMDEPPPETIPDNLIQNVIGRNDNADYDFSDASNPEIMKRDLQLFLSSSLLSNPLKFRSGYSSDELDDCLKSCMGYSLQVTAVLLLPPEIISQLPNDSKTEHAHALVRGGWLQSKEGAFFPVISDSERETVVSLMNGSEEQHKRQERKKKEADTFESEEKEIRTLLTFNMIAELLMAVRNEYSIRSVKYQILSTAYTNMVTGAAHANIFRKYKDILQLDPEKLWNNDWFKEYTNRGTLKKFLTTARFSEIVVSQANGKTVELYFRADDEGNRPVVLFTDEHIADVRNKWKTGNQRNQNYGSQGNYRAGGQRSDDRRGPQQRRNVIVPDPNYQPSTFAGGISNNADDDGSLQPTTSSHFNRNTDRSTSRPPRAPTSPVNRVMETDPLMGQGTSSGAPQRSAIPNPFGGAPALSRSTITNGNRGPSYGDRGERVQDVGDTTSDSEITSEGSYSDEDPEQKEIKRQRRKDKLKKKQERELRSREKHTKSKQQPPSKIETRFNTYKKKSESSATDTSNTPPVDTVNVALPTPVVESSSTTAAPSIPVSTRPEVVVPPENPAPLREVGNFYSKSNHDEDRRNVQLPFTPADTHKPIKVAPKEPVRNPLLKERPSANGFINRRLPSHPAPPPVNQSQPANQPMQTAVY
notes: source: E. coli BL21(DE3) derivative, purified as GST-tagged fusion protein
binding result [3]: binds
